Where “and” joins values, the source holds several entries; their conditions need not be identical. Equal entries are not always repeated.
Assays:
[1] = target: Soluble complex of 125I-IL-12 crosslinked to human IL-12R (human) (UniProt P29460); test: immunoprecipitation of the solubilized 125I-IL-12/IL-12R complex by the immobilized antibody; control
[2] = target: Natural human IL-12 receptor on IL-12R positive human cells (PHA-activated PBMC, K6, Kit-225, YT cells) (human)
[3] = target: Natural human IL-12 receptor on IL-12R positive human cells (PHA-activated PBMC, K6, Kit-225, YT cells) (human); test: steady state 125I-IL-12 binding to K6 cells, Scatchard, first of 3 sites
[4] = target: Natural human IL-12 receptor on IL-12R positive human cells (PHA-activated PBMC, K6, Kit-225, YT cells) (human); test: steady state 125I-IL-12 binding to K6 cells, Scatchard, third of 3 sites
[5] = target: Natural human IL-12 receptor on IL-12R positive human cells (PHA-activated PBMC, K6, Kit-225, YT cells) (human); test: steady state 125I-IL-12 binding to YT cells, Scatchard, first of 2 sites
[6] = target: Natural human IL-12 receptor on IL-12R positive human cells (PHA-activated PBMC, K6, Kit-225, YT cells) (human); test: steady state 125I-IL-12 binding to K6 cells, Scatchard, second of 3 sites
[7] = target: Natural human IL-12 receptor on IL-12R positive human cells (PHA-activated PBMC, K6, Kit-225, YT cells) (human); test: steady state 125I-IL-12 binding to YT cells, Scatchard, second of 2 sites
[8] = target: Natural human IL-12 receptor on IL-12R positive human cells (PHA-activated PBMC, K6, Kit-225, YT cells) (human); test: steady state 125I-IL-12 binding to Kit-225 cells, Scatchard, first of 3 sites
[9] = target: Natural human IL-12 receptor on IL-12R positive human cells (PHA-activated PBMC, K6, Kit-225, YT cells) (human); test: steady state 125I-IL-12 binding to Kit-225 cells, Scatchard, third of 3 sites
[10] = target: Natural human IL-12 receptor on IL-12R positive human cells (PHA-activated PBMC, K6, Kit-225, YT cells) (human); test: steady state 125I-IL-12 binding to Kit-225 cells, Scatchard, second of 3 sites
[11] = target: Natural human IL-12 receptor on IL-12R positive human cells (PHA-activated PBMC, K6, Kit-225, YT cells) (human); test: steady state 125I-IL-12 binding to PHA-PBMC (5-7 days), Scatchard, first of 3 sites
[12] = target: Natural human IL-12 receptor on IL-12R positive human cells (PHA-activated PBMC, K6, Kit-225, YT cells) (human); test: steady state 125I-IL-12 binding to PHA-PBMC (5-7 days), Scatchard, third of 3 sites
[13] = target: Natural human IL-12 receptor on IL-12R positive human cells (PHA-activated PBMC, K6, Kit-225, YT cells) (human); test: steady state 125I-IL-12 binding to PHA-PBMC (5-7 days), Scatchard, second of 3 sites
[14] = target: Natural human IL-12 receptor on IL-12R positive human cells (PHA-activated PBMC, K6, Kit-225, YT cells) (human); test: equilibrium binding of 125I-IL-12 to PHA-activated PBMCs, Kit-225 and K6 cells, Scatchard, first of 3 sites
[15] = target: Natural human IL-12 receptor on IL-12R positive human cells (PHA-activated PBMC, K6, Kit-225, YT cells) (human); test: equilibrium binding of 125I-IL-12 to PHA-activated PBMCs, Kit-225 and K6 cells, Scatchard, third of 3 sites
[16] = target: Natural human IL-12 receptor on IL-12R positive human cells (PHA-activated PBMC, K6, Kit-225, YT cells) (human); test: equilibrium binding of 125I-IL-12 to PHA-activated PBMCs, Kit-225 and K6 cells, Scatchard, second of 3 sites
[17] = target: Detergent solubilized IL-12R from extracts of PHA-activated PBMC, Kit-225 or K6 cells (human); test: steady state binding of 125I-IL-12 to proteins immunoprecipitated by immobilized 2-4E6 from solubilized cell extracts, Scatchard (FIG. 14, K6 cells)

Recombinant human IL-12 (Interleukin-12), sequence (P29460 23-328): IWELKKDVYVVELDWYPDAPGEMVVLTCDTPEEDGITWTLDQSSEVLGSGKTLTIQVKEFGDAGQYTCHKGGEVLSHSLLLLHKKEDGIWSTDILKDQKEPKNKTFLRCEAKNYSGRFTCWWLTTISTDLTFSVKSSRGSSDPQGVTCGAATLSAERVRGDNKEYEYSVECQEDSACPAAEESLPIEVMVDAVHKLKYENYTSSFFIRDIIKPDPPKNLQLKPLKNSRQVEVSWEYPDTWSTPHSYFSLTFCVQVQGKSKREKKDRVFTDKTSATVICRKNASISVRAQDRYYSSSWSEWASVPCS
Recombinant human IL-12 (Interleukin-12), sequence (chain): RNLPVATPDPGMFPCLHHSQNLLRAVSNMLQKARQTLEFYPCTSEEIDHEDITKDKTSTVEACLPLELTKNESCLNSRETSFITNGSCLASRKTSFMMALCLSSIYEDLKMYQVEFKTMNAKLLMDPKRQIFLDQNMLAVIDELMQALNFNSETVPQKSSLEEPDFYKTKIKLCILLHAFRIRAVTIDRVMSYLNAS

Substance | I.P. assay (cpm bound) [1] | 3H-TdR incorporation of PHA-activated PBMC [2] | Kd [3] | Kd [4] | Kd [5] | Kd [6] | Kd [7] | Kd [8] | Kd [9] | Kd [10] | Kd [11] | Kd [12] | Kd [13] | Kd [14] | Kd [15] | Kd [16] | Kd [17]
Control mAb (Table 1) (antibody) | 402 cpm |  |  |  |  |  |  |  |  |  |  |  |  |  |  |  | 
Recombinant human IL-12 (Interleukin-12) (from UniProt P29460) (ligand) |  | 38800 cpm | 0.016 nM | 2.4 nM | 0.006 nM | 0.057 nM | 0.109 nM | 0.023 nM | 2.36 nM | 0.21 nM | 0.018 nM | 1.8 nM | 0.084 nM | 0.005 nM and 0.02 nM | 2 nM and 6 nM | 0.05 nM and 0.2 nM | 0.188 nM

— patent US5831007
